# B1: T-box transcription factor TBX5 (Mus musculus), P70326 (parent)
# chain: MADTDEGFGLARTPLEPDSKDRSCDSKPESALGAPSKSPSSPQAAFTQQGMEGIKVFLHERELWLKFHEVGTEMIITKAGRRMFPSYKVKVTGLNPKTKYILLMDIVPADDHRYKFADNKWSVTGKAEPAMPGRLYVHPDSPATGAHWMRQLVSFQKLKLTNNHLDPFGHIILNSMHKYQPRLHIVKADENNGFGSKNTAFCTHVFPETAFIAVTSYQNHKITQLKIENNPFAKGFRGSDDLELHRMSRMQSKEYPVVPRSTVRHKVTSNHSPFSSETRALSTSSNLGSQYQCENGVSGPSQDLLPPPNPYPLAQEHSQIYHCTKRKDEECSSTEHPYKKPYMETSPSEEDTFYRSGYPQQQGLSTSYRTESAQRQACMYASSAPPSEPVPSLEDISCNTWPSMPSYSSCTVTTVQPMDRLPYQHFSAHFTSGPLVPRLAGMANHGSPQLGEGMFQHQTSVAHQPVVRQCGPQTGLQSPGGLQPPEFLYTHGVPRTLSPHQYHSVHGVGMVPEWSENS
# How the values were obtained:
# [1] = variants of: B1; conditions: with klf13_mouse Klf13, Q9JJZ6
# Sequence of klf13_mouse Klf13, Q9JJZ6 (Q9JJZ6 whole entry): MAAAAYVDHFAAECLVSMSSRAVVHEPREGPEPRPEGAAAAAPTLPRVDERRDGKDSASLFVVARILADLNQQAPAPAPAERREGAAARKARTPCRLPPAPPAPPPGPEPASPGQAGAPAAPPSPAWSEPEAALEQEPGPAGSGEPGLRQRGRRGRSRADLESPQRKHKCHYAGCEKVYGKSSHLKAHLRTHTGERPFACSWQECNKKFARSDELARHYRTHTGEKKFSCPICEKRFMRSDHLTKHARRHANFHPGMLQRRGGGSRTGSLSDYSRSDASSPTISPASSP
# [2] = variants of: B1; conditions: with nkx25_mouse Nkx2-5, P42582
# Sequence of nkx25_mouse Nkx2-5, P42582 (P42582 whole entry): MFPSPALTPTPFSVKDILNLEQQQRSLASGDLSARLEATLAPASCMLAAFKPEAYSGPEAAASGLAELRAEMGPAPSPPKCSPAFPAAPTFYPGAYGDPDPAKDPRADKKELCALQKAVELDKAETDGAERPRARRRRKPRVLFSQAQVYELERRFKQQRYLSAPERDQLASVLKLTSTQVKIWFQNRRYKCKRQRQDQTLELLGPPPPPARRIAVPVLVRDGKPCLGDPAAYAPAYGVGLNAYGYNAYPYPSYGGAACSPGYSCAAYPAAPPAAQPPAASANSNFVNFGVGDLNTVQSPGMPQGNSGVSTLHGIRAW
effect of a mutation on the interaction [1],effect of a mutation on the interaction [2],Variant
decreasing interaction strength,decreasing interaction strength,MADTDEGFGLARTPLEPDSKDRSCDSKPESALGAPSKSPSSPQAAFTQQGMEGIKVFLHERELWLKFHEVGTEMIITKAQRRMFPSYKVKVTGLNPKTKYILLMDIVPADDHRYKFADNKWSVTGKAEPAMPGRLYVHPDSPATGAHWMRQLVSFQKLKLTNNHLDPFGHIILNSMHKYQPRLHIVKADENNGFGSKNTAFCTHVFPETAFIAVTSYQNHKITQLKIENNPFAKGFRGSDDLELHRMSRMQSKEYPVVPRSTVRHKVTSNHSPFSSETRALSTSSNLGSQYQCENGVSGPSQDLLPPPNPYPLAQEHSQIYHCTKRKDEECSSTEHPYKKPYMETSPSEEDTFYRSGYPQQQGLSTSYRTESAQRQACMYASSAPPSEPVPSLEDISCNTWPSMPSYSSCTVTTVQPMDRLPYQHFSAHFTSGPLVPRLAGMANHGSPQLGEGMFQHQTSVAHQPVVRQCGPQTGLQSPGGLQPPEFLYTHGVPRTLSPHQYHSVHGVGMVPEWSENS [G80Q]
with no effect,decreasing interaction strength,MADTDEGFGLARTPLEPDSKDRSCDSKPESALGAPSKSPSSPQAAFTQQGMEGIKVFLHERELWLKFHEVGTEMIITKAGRRMFPSYKVKVTGLNPKTKYILLMDIVPADDHRYKFADNKWSVTGKAEPAMPGRLYVHPDSPATGAHWMRQLVSFQKLKLTNNHLDPFGHIILNSMHKYQPRLHIVKADENNGFASKNTAFCTHVFPETAFIAVTSYQNHKITQLKIENNPFAKGFRGSDDLELHRMSRMQSKEYPVVPRSTVRHKVTSNHSPFSSETRALSTSSNLGSQYQCENGVSGPSQDLLPPPNPYPLAQEHSQIYHCTKRKDEECSSTEHPYKKPYMETSPSEEDTFYRSGYPQQQGLSTSYRTESAQRQACMYASSAPPSEPVPSLEDISCNTWPSMPSYSSCTVTTVQPMDRLPYQHFSAHFTSGPLVPRLAGMANHGSPQLGEGMFQHQTSVAHQPVVRQCGPQTGLQSPGGLQPPEFLYTHGVPRTLSPHQYHSVHGVGMVPEWSENS [G195A]
decreasing interaction strength,decreasing interaction strength,MADTDEGFGLARTPLEPDSKDRSCDSKPESALGAPSKSPSSPQAAFTQQGMEGIKVFLHERELWLKFHEVGTEMIITKAGRRMFPSYKVKVTGLNPKTKCILLMDIVPADDHRYKFADNKWSVTGKAEPAMPGRLYVHPDSPATGAHWMRQLVSFQKLKLTNNHLDPFGHIILNSMHKYQPRLHIVKADENNGFGSKNTAFCTHVFPETAFIAVTSYQNHKITQLKIENNPFAKGFRGSDDLELHRMSRMQSKEYPVVPRSTVRHKVTSNHSPFSSETRALSTSSNLGSQYQCENGVSGPSQDLLPPPNPYPLAQEHSQIYHCTKRKDEECSSTEHPYKKPYMETSPSEEDTFYRSGYPQQQGLSTSYRTESAQRQACMYASSAPPSEPVPSLEDISCNTWPSMPSYSSCTVTTVQPMDRLPYQHFSAHFTSGPLVPRLAGMANHGSPQLGEGMFQHQTSVAHQPVVRQCGPQTGLQSPGGLQPPEFLYTHGVPRTLSPHQYHSVHGVGMVPEWSENS [Y100C]
decreasing interaction strength,decreasing interaction strength,MADTDEGFGLARTPLEPDSKDRSCDSKPESALGAPSKSPSSPQAAFTQQGMEGIKVFLHERELWLKFHEVGTEMIITKAGRRMFPSYKVKVTGLNPKTKYILLMDIVPADDHRYKFADNKWSVTGKAEPAMPGRLYVHPDSPATGAHWMRQLVSFQKLKLTNNHLDPFRHIILNSMHKYQPRLHIVKADENNGFGSKNTAFCTHVFPETAFIAVTSYQNHKITQLKIENNPFAKGFRGSDDLELHRMSRMQSKEYPVVPRSTVRHKVTSNHSPFSSETRALSTSSNLGSQYQCENGVSGPSQDLLPPPNPYPLAQEHSQIYHCTKRKDEECSSTEHPYKKPYMETSPSEEDTFYRSGYPQQQGLSTSYRTESAQRQACMYASSAPPSEPVPSLEDISCNTWPSMPSYSSCTVTTVQPMDRLPYQHFSAHFTSGPLVPRLAGMANHGSPQLGEGMFQHQTSVAHQPVVRQCGPQTGLQSPGGLQPPEFLYTHGVPRTLSPHQYHSVHGVGMVPEWSENS [G169R]
decreasing interaction strength,decreasing interaction strength,MADTDEGFGLARTPLEPDSKDRSCDSKPESALGAPSKSPSSPQAAFTQQGMEGIKVFLHERELWLKFHEVGTEMIITKVGRRMFPSYKVKVTGLNPKTKYILLMDIVPADDHRYKFADNKWSVTGKAEPAMPGRLYVHPDSPATGAHWMRQLVSFQKLKLTNNHLDPFGHIILNSMHKYQPRLHIVKADENNGFGSKNTAFCTHVFPETAFIAVTSYQNHKITQLKIENNPFAKGFRGSDDLELHRMSRMQSKEYPVVPRSTVRHKVTSNHSPFSSETRALSTSSNLGSQYQCENGVSGPSQDLLPPPNPYPLAQEHSQIYHCTKRKDEECSSTEHPYKKPYMETSPSEEDTFYRSGYPQQQGLSTSYRTESAQRQACMYASSAPPSEPVPSLEDISCNTWPSMPSYSSCTVTTVQPMDRLPYQHFSAHFTSGPLVPRLAGMANHGSPQLGEGMFQHQTSVAHQPVVRQCGPQTGLQSPGGLQPPEFLYTHGVPRTLSPHQYHSVHGVGMVPEWSENS [A79V]
decreasing interaction strength,decreasing interaction strength,MADTDEGFGLARTPLEPDSKDRSCDSKPESALGAPSKSPSSPQAAFTQQGMEGIKVFLHERELWLKFHEVGTEMIITKAGRRMFPSYKVKVTGLNPKTKYIPLMDIVPADDHRYKFADNKWSVTGKAEPAMPGRLYVHPDSPATGAHWMRQLVSFQKLKLTNNHLDPFGHIILNSMHKYQPRLHIVKADENNGFGSKNTAFCTHVFPETAFIAVTSYQNHKITQLKIENNPFAKGFRGSDDLELHRMSRMQSKEYPVVPRSTVRHKVTSNHSPFSSETRALSTSSNLGSQYQCENGVSGPSQDLLPPPNPYPLAQEHSQIYHCTKRKDEECSSTEHPYKKPYMETSPSEEDTFYRSGYPQQQGLSTSYRTESAQRQACMYASSAPPSEPVPSLEDISCNTWPSMPSYSSCTVTTVQPMDRLPYQHFSAHFTSGPLVPRLAGMANHGSPQLGEGMFQHQTSVAHQPVVRQCGPQTGLQSPGGLQPPEFLYTHGVPRTLSPHQYHSVHGVGMVPEWSENS [L102P]
